This note sets out measurements from the supplement of paper PMC6379048.

One series addresses T1, TSNAX (UniProt Q99598).
T1 sequence: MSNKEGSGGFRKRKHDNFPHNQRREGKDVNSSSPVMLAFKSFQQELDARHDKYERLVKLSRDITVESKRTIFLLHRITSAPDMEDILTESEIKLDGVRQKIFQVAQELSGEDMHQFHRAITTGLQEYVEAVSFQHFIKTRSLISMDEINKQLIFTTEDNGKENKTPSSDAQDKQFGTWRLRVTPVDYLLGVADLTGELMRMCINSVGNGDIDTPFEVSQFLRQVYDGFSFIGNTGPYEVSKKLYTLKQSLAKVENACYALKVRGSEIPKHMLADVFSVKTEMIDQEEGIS
As to the kind of experiment: EC50 of free RNA motif oligo competing protein binding to immobilised probe. The method in brief:
(§1)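 Free RNA oligos (0 nM to 30 μM) competed for 1 h at 4°C in HEK293-FT lysate (2.5 mg protein/well) before a 30 min, 4°C pulldown with the same oligos on NHS-Sepharose beads. Bound proteins were quantified by label-free LC-MS/MS and normalised to the control. Kd was found by multiplying EC50, from a four-parameter log-logistic fit, by a protein-dependent depletion factor.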

For a further series, the target named is T2, SF3B2 (UniProt Q13435).
T2 sequence: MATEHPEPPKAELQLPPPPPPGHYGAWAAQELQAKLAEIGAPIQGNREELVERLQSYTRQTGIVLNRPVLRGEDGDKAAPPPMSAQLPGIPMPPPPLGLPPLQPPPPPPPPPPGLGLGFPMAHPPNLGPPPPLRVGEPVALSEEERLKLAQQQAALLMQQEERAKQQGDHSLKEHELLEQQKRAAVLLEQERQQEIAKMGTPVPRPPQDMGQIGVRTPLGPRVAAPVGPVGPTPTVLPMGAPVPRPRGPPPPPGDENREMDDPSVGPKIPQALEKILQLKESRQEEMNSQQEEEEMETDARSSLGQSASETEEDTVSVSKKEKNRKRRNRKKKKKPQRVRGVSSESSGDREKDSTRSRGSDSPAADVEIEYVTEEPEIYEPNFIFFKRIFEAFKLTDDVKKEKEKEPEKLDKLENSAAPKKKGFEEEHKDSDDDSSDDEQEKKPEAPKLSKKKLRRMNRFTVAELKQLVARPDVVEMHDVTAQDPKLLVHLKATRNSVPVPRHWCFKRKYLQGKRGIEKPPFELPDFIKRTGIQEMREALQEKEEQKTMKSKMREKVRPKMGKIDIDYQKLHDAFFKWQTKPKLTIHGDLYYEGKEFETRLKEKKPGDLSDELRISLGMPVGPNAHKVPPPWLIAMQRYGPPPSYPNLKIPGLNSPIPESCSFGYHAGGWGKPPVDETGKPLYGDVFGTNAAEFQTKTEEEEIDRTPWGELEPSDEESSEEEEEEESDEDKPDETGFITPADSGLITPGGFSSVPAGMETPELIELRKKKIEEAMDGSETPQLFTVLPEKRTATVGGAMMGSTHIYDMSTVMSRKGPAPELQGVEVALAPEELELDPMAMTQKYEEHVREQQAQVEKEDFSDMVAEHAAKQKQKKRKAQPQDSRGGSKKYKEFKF
The description is as above. The method, boiled down: as §1

In a further series the target is P4HA1 (UniProt P13674). The description is as above. The method, boiled down: as §1
A further series deals with T3, U2AF1 (UniProt Q01081).
T3 sequence: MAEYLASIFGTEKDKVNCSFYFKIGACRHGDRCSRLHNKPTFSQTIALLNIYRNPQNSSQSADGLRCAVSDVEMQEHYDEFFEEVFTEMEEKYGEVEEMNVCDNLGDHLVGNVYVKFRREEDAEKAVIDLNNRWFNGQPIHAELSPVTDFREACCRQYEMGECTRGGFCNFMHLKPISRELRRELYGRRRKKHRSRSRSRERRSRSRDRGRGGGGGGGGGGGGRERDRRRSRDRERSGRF
The series is described as above. The method in brief: as §1

The target of the next series is SF3B6 (UniProt Q9Y3B4). The experiment in a line: Kd (EC50 corrected by depletion factor). The method, boiled down: as §1
For a further series, the target named is RPS28 (UniProt P62857). The experiment in a line: EC50 of free RNA motif oligo competing protein binding to immobilised probe. The method, boiled down: as §1
The target of the next series is HNRNPA2B1 (UniProt P22626). Described as above. The method, boiled down:
as §1

For another series, the target named is T4, ZCRB1 (UniProt Q8TBF4).
T4 sequence: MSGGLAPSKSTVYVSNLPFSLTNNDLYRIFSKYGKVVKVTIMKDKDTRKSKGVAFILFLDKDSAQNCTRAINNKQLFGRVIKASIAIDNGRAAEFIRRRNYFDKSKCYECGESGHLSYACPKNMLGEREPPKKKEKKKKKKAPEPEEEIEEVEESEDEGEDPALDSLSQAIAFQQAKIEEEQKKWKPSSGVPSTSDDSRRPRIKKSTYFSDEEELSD
The series is described as above. The method, boiled down: as §1

Another series deals with MRPS25 (UniProt P82663). The series is described as above. The method in brief:
as §1

Another series has as its target T5, GRSF1 (UniProt Q12849).
T5 sequence: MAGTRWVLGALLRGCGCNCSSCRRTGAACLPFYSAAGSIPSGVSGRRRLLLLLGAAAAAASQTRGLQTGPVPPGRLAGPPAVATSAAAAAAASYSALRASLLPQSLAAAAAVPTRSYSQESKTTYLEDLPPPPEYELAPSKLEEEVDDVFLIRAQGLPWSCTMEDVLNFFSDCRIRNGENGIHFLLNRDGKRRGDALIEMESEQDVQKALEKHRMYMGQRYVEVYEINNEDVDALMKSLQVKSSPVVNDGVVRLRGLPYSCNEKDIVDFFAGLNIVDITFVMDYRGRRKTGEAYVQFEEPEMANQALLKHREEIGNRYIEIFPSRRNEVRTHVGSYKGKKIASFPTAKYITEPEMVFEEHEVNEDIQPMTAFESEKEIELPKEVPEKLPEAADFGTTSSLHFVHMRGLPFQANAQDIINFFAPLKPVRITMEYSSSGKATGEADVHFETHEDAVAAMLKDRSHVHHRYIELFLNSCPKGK
The description is as above. The method in brief:
as §1

P4HA1, sequence (P13674 whole entry): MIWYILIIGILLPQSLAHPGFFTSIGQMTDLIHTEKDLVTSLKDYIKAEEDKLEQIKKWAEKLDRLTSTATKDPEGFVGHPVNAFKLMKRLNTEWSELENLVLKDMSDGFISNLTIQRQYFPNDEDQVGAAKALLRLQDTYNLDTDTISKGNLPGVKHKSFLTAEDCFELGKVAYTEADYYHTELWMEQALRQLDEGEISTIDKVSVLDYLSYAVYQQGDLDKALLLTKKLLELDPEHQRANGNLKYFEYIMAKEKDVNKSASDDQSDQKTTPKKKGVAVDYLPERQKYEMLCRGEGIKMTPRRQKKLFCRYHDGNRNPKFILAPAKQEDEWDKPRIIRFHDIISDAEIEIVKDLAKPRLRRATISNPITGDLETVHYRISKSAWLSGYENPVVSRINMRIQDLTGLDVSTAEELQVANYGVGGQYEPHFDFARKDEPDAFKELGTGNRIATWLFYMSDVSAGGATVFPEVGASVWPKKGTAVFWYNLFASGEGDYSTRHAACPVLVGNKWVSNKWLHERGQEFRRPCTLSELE
SF3B6, sequence (Q9Y3B4 whole entry): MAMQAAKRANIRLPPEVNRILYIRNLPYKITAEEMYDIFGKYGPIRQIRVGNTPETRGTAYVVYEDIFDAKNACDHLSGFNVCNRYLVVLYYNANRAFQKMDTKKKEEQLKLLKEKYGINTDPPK
HNRNPA2B1, sequence (P22626 whole entry): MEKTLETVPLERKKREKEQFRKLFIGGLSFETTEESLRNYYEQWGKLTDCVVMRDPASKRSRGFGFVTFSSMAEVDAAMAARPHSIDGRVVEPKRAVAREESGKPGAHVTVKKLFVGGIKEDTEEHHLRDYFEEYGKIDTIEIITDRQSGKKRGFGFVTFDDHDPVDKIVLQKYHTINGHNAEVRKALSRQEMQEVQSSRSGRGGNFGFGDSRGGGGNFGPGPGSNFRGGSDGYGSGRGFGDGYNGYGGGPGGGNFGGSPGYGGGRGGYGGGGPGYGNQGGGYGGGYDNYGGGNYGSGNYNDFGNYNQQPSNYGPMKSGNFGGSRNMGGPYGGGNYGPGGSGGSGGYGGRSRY

In general, EC50 refers to the concentration needed to bring the measured effect to its halfway point. A higher EC50 goes with a less potent agent. What is called Kd is a measure of binding affinity in units of concentration. Higher therefore signals a looser complex. As to AAUAAA, the EC50 with TSNAX came to 30.5 nM; in the series with SF3B2 it was 1180 nM; in the series with P4HA1, 65.6 nM; with U2AF1 it was 1460 nM. Besides, the dissociation constant Kd with SF3B6 came to 2270 nM.
As for CUGUCCU, in the series with RPS28, the EC50 stood at 212 nM. This counts as sub-micromolar.
With UAUUUAU, the half-maximal effective concentration (EC50) with HNRNPA2B1 worked out at 7320 nM; in the series with ZCRB1 it was 3800 nM; in the series with MRPS25, 17.4 nM; with GRSF1 it was 18000 nM.
